Drawing on the RNAGym collection of RNA variant scans (doi:10.1093/molbev/msab373), this text covers reverse-splicing fitness for 84 variants.

The labels stand for the following.
B1: Azoarcus group I ribozyme (parent)
chain: GUGCCUUGCGCCGGGAAACCACGCAAGGGAUGGUGUCAAAUUCGGCGAAACCUAAGCGCCCGCCCGGGCGUAUGGCAACGCCGAGCCAAGCUUCGGCGCCUGCGCCGAUGAAGGUGUAGAGACUAGACGGCACCCACCUAAGGCAAACGCUAUGGUGAAGGCAUAGUCCAGGGAGUGGCGAAAGUCACACAAACCGG

The variants in this data set derive from B1. In words: reverse-splicing fitness (ratio to wild type); higher = more active; in vitro selection; Mg2+ level not given. The essentials: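 An in vitro group I ribozyme library with randomized positions was T7-transcribed and gel-purified. In triplicate, 10 pmol RNA in EPPS pH 7.5 was reacted with 50 pmoles of a 30-nt RNA substrate for 1 h at 37 °C across several added MgCl2 levels (1–48 mM), then stopped with EDTA. Products were reverse transcribed from a substrate-complementary primer, PCR-amplified and sequenced (HiSeq 4000). Fitness is a variant's read proportion after selection over that before, normalised to wild type.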
Take A111G A145C C150G C169U U176C: the reverse-splicing fitness is 0.0138. The figure for A111G A145C C150G C169U U176A is 0.00841; for A111G A145C C150G C169U U176G it is 0.00527; for A111G A120U C150U C169U U176C it is 0.02. Next, A111G A120U C150U C169U U176A: 0.016; A111G A120U C150U C169U U176G: 0.0032. The figure for A111G A145C C150A is 0.229; for A111G A145C C150G it is 0.45. Turning to A111G A145C C150U, the reverse-splicing fitness was 0.688. The figure for A111G A145C C169A U176A is 0.0126; for A111G A145C C169A U176C it is 0.0139; for A111G A145C C169A U176G it is 0.00444. A111G A120U C169U U176C: the reverse-splicing fitness came to 0.0395. As to A111G A120U C169U U176G, the reverse-splicing fitness came to 0.00411. Take A111G A120U C169U U176A: the reverse-splicing fitness turned out to be 0.0277.

As to A111G A120U C150G C169A U176G, the reverse-splicing fitness is 0.00246. In the case of A111G A120U C150G C169A U176A, the reverse-splicing fitness turned out to be 0.00453. With A111G A120U C150G C169A U176C, the reverse-splicing fitness was 0.00366. In the case of A111G A120U A145C C150U, the reverse-splicing fitness was determined as 0.264. The figure for A111G A120U A145C C150G is 0.116.

As to A111G A120U A145C C150A, the reverse-splicing fitness is 0.0434. The figure for A111G A120U A145G C150U C169A U176C is 0.00357; for A111G A120U A145G C150U C169A U176A it is 0.00469; for A111G A120U A145G C150U C169A U176G it is 0.00246. With A111G A145C U176C, the reverse-splicing fitness was determined as 0.78. The figure for A111G A145C U176A is 0.718; for A111G A145C U176G it is 0.448; for A111G A120U A145G U176G it is 0.124. Next, A111G A120U A145G U176A: 0.344; A111G A120U A145G U176C: 0.386. The figure for A111G A120U A145C C150U C169G is 0.0196; for A111G A120U A145C C150U C169U it is 0.0277; for A111G A120U A145C C150U C169A it is 0.0024. As for A111G A145C C150U U176C, the reverse-splicing fitness is 0.491. Regarding A111G A145C C150U U176A, the reverse-splicing fitness was 0.456. Next, A111G A145C C150U U176G: 0.23; A111G A145C C150A U176G: 0.0755. Turning to A111G A145C C150A U176C, the reverse-splicing fitness was found to be 0.128. The figure for A111G A145C C150A U176A is 0.129; for A111G A120U A145C C169A U176C it is 0.0018. Next, A111G A120U A145C C169A U176G: 0.0014. A111G A120U A145C C169A U176A: the reverse-splicing fitness amounted to 0.00226. For the variant A111G A120U C150A C169U U176A, the reverse-splicing fitness stood at 0.0063. Next, A111G A120U C150A C169U U176C: 0.00598. Turning to A111G A120U C150A C169U U176G, the reverse-splicing fitness worked out at 0.00282.

As to A111G A120U A145G C150U C169U U176A, the reverse-splicing fitness is 0.0147.

Consider A111G A120U A145G C150U C169U U176G, for which the reverse-splicing fitness was found to be 0.00334.

Take A111G A120U A145G C150U C169U U176C: the reverse-splicing fitness came out at 0.0273. Regarding A111G A120U A145U C169U U176G, the reverse-splicing fitness is 0.00399. On to A111G A120U A145U C169U U176C, for which the reverse-splicing fitness turned out to be 0.032. Take A111G A120U A145U C169U U176A: the reverse-splicing fitness is 0.0203.

A111G A120U A145C C169U U176G: the reverse-splicing fitness came out at 0.00329. As to A111G A120U A145C C169U U176C, the reverse-splicing fitness came to 0.0146. The figure for A111G A120U A145C C169U U176A is 0.0207; for A111G A120U A145C C150A C169G U176G it is 0.00195; for A111G A120U A145C C150A C169G U176C it is 0.00181.

As for A111G A120U A145C C150A C169G U176A, the reverse-splicing fitness amounted to 0.00272. Next, A111G A120U A145U C150G C169G U176C: 0.00268; A111G A120U A145U C150G C169G U176A: 0.00284.

For A111G A120U A145U C150G C169G U176G, the reverse-splicing fitness turned out to be 0.00203.

Regarding A111G A120U C169A, the reverse-splicing fitness came to 0.00619. The figure for A111G A120U C169G is 0.103.

In the case of A111G A120U C169U, the reverse-splicing fitness came out at 0.144. The figure for A111G A120U A145G C150G C169A is 0.00794; for A111G A120U A145G C150G C169G it is 0.0123; for A111G A120U A145G C150G C169U it is 0.0149. The figure for A111G A120U A145U C150U C169G U176G is 0.00232. Next, A111G A120U A145U C150U C169G U176C: 0.009; A111G A120U A145U C150U C169G U176A: 0.00842. Consider A111G A120U A145G C150A C169G U176C, for which the reverse-splicing fitness turned out to be 0.00584. Regarding A111G A120U A145G C150A C169G U176A, the reverse-splicing fitness was determined as 0.0104.

Consider A111G A120U A145G C150A C169G U176G, for which the reverse-splicing fitness was 0.00256.

Consider A111G A120U A145G C150G C169G U176A, for which the reverse-splicing fitness worked out at 0.00719. Next, A111G A120U A145G C150G C169G U176C: 0.00396; A111G A120U A145G C150G C169G U176G: 0.00311; A111G A145C C150A C169G U176G: 0.00534. For the variant A111G A145C C150A C169G U176A, the reverse-splicing fitness came to 0.02. As for A111G A145C C150A C169G U176C, the reverse-splicing fitness is 0.0114.

A111G A120U A145U C169A U176A: the reverse-splicing fitness is 0.00236. As to A111G A120U A145U C169A U176G, the reverse-splicing fitness worked out at 0.00131. On to A111G A120U A145U C169A U176C, for which the reverse-splicing fitness was 0.00348. A111G A145C C169U U176A: the reverse-splicing fitness is 0.0432.

A111G A145C C169U U176C: the reverse-splicing fitness was 0.0591. Next, A111G A145C C169U U176G: 0.00859.
